Results as given in US7250395B2, “Antagonist peptides to VEGF receptor Flt-1” (Beijing Institute for Cancer Research, priority 2001, dated 2007).
“Also recorded” adds a separate entry of the source.

Key:
[1] = tested on: chick chorioallantoic membrane blood vessels; assay: Proliferation of blood vessels on chick chorioallantoic membrane; assay type: in vivo
Description: In this example, a proliferation assay on chick chorioallantoic membrane blood vessels was carried out to detect the inhibition of F56 to angiogenesis.
The experiment was carried out according to a method described by Fu Shengfa et al. (Fu Shengfa, Lu Yinglin and Zhang Chaoshan: Technique of detecting the effects of vascular growth factor with chorioallantoic membrane of fertilized chicken eggs. Chin Mili. Acad. Medi. Scie. 1993, 17:294-97”). Particularly, fresh inseminated chicken eggs were soaked in 0.1% benzalkonium bromide solution for 2 minutes at 38° C., and incubated in an incubator at 37.5° C., 60-70% humidity for 3 days. Then, the eggs were stripped and cultured on a petri dish. When the allantoic membrane grew to about 1cm^2, the different groups (5 chick embryos per group) were treated with the following agents. VEGF165 (2 μg/L), DHFR (negative control) or 18 μl F56 solution (0.8 μg/μl) was dropped onto a glass-fiber filter membrane (Φ5 mm). The membrane was placed on the distal end (in relation to the heart of the embryo) of the chorioallantoic membrane. The agents were administered once in the morning and once in the evening for 2 days. The results were observed and recorded by photography. The experiment was repeated twice (Kodak 100, exposed for 3 s).

[2] = tested on: human umbilical cord vein-derived endothelial cells (HUVECs); assay: VEGF-stimulated proliferation of HUVECs (3H-TdR incorporation); assay type: cell-based; conditions: 50, 100, 200, 300 μmol/L with VEGF165, 48 hours; FIG. 2
Description: A sample of human umbilical cord (obtained from Beijing Gynecological and Obstetric Hospital) was digested by 0.1% collagenase II (purchased from GIBCO BRL Corporation), and centrifuged at 1000 rpm for 10 minutes to collect the human umbilical cord vein-derived endothelial cells (HUVECs). The cells were suspended in 20% FCS/RPMI 1640 (purchased from GIBCO BRL Corporation), and transferred to a plastic culture flask and cultured in a incubator (37° C., 5% CO2) for 2 days. Then, the cultured HUVECs were digested with 0.04% trypsin-EDTA, and inoculated into a 24-well plate at 3×10^4 cells/well. After 24 hours' incubation, the cells were incubated for another 24 hours in new medium 2% FCS/RPIM 1640. VEGF165 (product of Sigma Corporation) was added either independently or as a mixture with peptide F56 or F90 of different concentrations (50, 100, 200, 300 μmol/L). 4 parallel wells were used for each group. The cells were incubated for 48 hours. Then, ^3H-TdR(1 μci/ml) was added and the cells were incubated for another 8 hours. The cells were collected to a glass-fiber filter membrane. The cpm value was detected according to conventional methods. The same experiment was repeated for 3 times.

[3] = tested on: human breast cancer cells; assay: Metastasis model of breast cancer in SCID mice; assay type: in vivo
Description: In order to observe the inhibitory activity of the peptides of the present invention to cancer metastasis, a metastasis model of breast cancer in SCID mice as described by Li Zhihong at al. (Transplant of human breast cancer in nude mice. Natl. Med J Chin. Vol.80 (11), 2000) was used to determine the function of F56. Briefly, human breast cancer cells were inoculated under the fat pad in the breast of SCID mice. Peptide F56 (0.5 mmol/L) was injected topically (60 μl per mouse per time) on the next day and every other day for 10 times in total. After 8 weeks, the mice were put to dead. The tumors were taken out and weighted. The whole lung was taken out, fixed and sliced with maximal cross-section and dyed by HE. The number of metastatic foci was counted.

[4] = target: T1, sFlt-1 (Homo sapiens, UniProt P17948); assay: ELISA test of binding specificity to soluble receptor sFlt-1; conditions: for binding to Flt-1 (in words): ELISA; for ELISA (OD492 nm), SFlt-1: plate coated with sFlt-1 5 mg/L, detection with DHFR-specific monoclonal antibody
T1 construct: made in house
T1 sequence (P17948 27-758 limits assumed, species assumed): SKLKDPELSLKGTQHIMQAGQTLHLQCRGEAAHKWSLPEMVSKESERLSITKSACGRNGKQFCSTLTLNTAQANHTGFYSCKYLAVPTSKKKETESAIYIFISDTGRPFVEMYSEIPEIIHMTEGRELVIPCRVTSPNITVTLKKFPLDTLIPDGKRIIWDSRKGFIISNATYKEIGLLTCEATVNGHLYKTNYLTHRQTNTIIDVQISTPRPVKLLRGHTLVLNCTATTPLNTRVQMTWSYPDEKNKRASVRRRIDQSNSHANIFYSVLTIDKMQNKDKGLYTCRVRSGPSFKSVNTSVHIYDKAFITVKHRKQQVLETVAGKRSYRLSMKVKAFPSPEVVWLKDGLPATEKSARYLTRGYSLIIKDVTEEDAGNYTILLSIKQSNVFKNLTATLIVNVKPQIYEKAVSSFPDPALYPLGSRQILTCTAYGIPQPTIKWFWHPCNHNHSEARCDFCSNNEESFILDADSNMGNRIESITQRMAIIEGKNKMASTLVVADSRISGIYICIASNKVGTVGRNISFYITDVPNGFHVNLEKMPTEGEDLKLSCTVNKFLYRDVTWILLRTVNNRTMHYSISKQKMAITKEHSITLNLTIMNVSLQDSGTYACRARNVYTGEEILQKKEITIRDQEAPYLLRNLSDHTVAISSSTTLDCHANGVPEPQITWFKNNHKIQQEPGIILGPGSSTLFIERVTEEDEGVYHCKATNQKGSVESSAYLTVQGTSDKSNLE
Description: (§1) The specificity of the binding of the fusion proteins DHFR-F56 and DHFR-F90 to receptor Flt-1 was tested by ELISA in the present example.
(§2) Particularly, a 96-well plate was coated with soluble receptors, sFlt-1, sKDR (5 mg/L, 50 μl/well) [Song Shumei, Shou Chengchao: Molecular cloning and its expression of vascular endothelia growth factor receptor KDR. Chin J. Biochem. Mol. Bio. 1998, 14 (1): 57-61; An Ping, Dong Zhewei and Shou Chengchao: Molecular cloning and its bio-activity of soluble VEGF receptor expressed in bacterial. Chin J. Biochem. Mol. Bio. 2000, 16 (1): 62-66]. Alternatively, the vascular endothelial cells in a 96-well plate were fixed by pre-cooled 0.125% glutaraldehyde solution. DHFR, DHFR-F56 or DHFR-F90 was added to the plate after blocking. An ELISA assay was carried out using a DHFR-specific monoclonal antibody according to conventional method. The ELISA assay was repeated for 3 times.

[5] = target: T2, soluble receptor of VEGF, Flt-1 (sFlt-1) (Homo sapiens, UniProt P17948); assay: 125I-VEGF competitive binding assay on coated sFlt-1; conditions: 1, 5, 10, 15, 20 μg/ml; 125I-VEGF 2 μg/L; FIG. 1
T2 construct: coated overnight at 4° C. by 0.5 mg/L soluble receptor of VEGF, Flt-1 (sFlt-1)
T2 sequence (P17948 27-758 limits assumed, species assumed): as above
Description: In order to detect the activity of DHFR-F56 blocking VEGF binding to sFlt-1, a binding assay was carried out using ^125I-VEGF (purchased from Life Technology Inc.).
The experiment was carried out according to a method substantially as described by Tanaka, K., et al (Characterization of the extracellular domain in vascular endothelial growth factor receptor-1 (Flt-1 tyrosine kinase). Jpn J Cancer Res. 1997, 88:867-876). Briefly, a 96-well plate was coated overnight at 4° C. by 0.5 mg/L soluble receptor of VEGF, Flt-1 (sFlt-1). The coating solution was 0.01 mol/L phosphate buffer (pH 6.2). Then, the plate was rinsed with a washing solution (0.9% NaCl, 0.01 mol/L, pH6.2) for 3 times. 250 μl blocking buffer (0.3% BSA, 25 mmol/L HEPES, DMEM, pH7.6) was added into each well for 3 hours at room temperature. DHFR-F56 of different concentrations (1, 5, 10, 15, 20 μg/ml) (DHFR of different concentrations for the control group) and ^125I-VEGF (purchased from Life Technology Inc.) of fixed concentration (2 μg/L, […]) were added to the wells. 2 parallel wells were used for each concentration. The binding reaction underwent for 1 hour at room temperature. The plate was rinsed 4 times with the binding buffer. […] The cpm value was determined by a Wallac co liquid-scintillation counter after the solid residue had been dissolved.

[6] = target: T3, sKDR (Homo sapiens, UniProt P35968); assay: ELISA test of binding specificity to soluble receptor sKDR; conditions: for reaction with KDR (in words): ELISA; for ELISA (OD492 nm), SKDR: plate coated with sKDR 5 mg/L, detection with DHFR-specific monoclonal antibody
T3 construct: made in house
T3 sequence (P35968 20-764 limits assumed): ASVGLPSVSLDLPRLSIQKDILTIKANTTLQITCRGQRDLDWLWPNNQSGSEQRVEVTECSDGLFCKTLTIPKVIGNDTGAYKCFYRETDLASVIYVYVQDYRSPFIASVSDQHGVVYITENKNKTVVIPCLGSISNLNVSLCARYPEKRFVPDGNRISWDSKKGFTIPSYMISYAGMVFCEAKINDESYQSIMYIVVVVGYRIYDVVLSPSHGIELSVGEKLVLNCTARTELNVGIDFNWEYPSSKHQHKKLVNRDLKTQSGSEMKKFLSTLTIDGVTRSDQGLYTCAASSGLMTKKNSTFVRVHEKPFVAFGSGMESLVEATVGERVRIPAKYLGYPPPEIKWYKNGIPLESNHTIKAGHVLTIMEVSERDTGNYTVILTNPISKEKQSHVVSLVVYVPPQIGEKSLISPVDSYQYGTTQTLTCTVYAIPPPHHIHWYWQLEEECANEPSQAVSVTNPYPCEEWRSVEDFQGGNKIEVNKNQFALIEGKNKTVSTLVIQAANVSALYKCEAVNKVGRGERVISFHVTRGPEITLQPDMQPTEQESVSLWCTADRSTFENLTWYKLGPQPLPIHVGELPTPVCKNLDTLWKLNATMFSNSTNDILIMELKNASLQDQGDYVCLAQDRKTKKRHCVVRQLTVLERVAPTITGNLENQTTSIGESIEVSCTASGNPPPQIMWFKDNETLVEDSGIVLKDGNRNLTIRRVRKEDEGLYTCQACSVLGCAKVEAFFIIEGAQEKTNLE
Description: as §1, §2

[7] = tested on: MGC803 cells (a human gastric carcinoma cell line); assay: Tumor inhibition test, MGC803 implanted in Balb/c nude mice; assay type: in vivo; conditions: 150 μg/100 μl intraperitoneally every other day for 10 times; for growth of human gastric carcinoma MGC803 cells in Balb/c nude mice: p<0.05 vs DHFR control
Description: To testify whether DHFR-F56 and DHFR-F90 can inhibit tumor growth on the basis of anti-angiogenesis, a tumor inhibition test on Balb/c nude mice was performed.
MGC803 cells (a human gastric carcinoma cell line) was subcutaneously implanted on the right buttock of eight 5-week aged nude mice (purchased from the Animal Center of the Chinese Academy of Medical Sciences) (2×10^6 cells/0.1 ml/each mouse). On the fifth day after the implantation, the nude mice were grouped at random into […] each of which included 4 mice. DHFR (150 μg/100 μl per time), DHFR-F56 or DHFR-F90 (150 μg/100 μl per time) was injected intraperitoneally every other day for 10 times. […] The major and minor axes of the tumors were measured by vernier caliper every three days during the observation period. The volume of the tumor was calculated according to the formula of ½×major axis×minor axis^2. After the 30 days, the nude mice were put to dead by neck-breaking. The tumors were weighted and analyzed statistically.

[8] = tested on: vascular endothelial cells; assay: ELISA test of binding to fixed vascular endothelial cells; conditions: for binding to endothelial cells (in words): ELISA; for ELISA (OD492 nm), EC: glutaraldehyde-fixed vascular endothelial cells, DHFR-specific monoclonal antibody
Description: as §1, §2

[9] = on filter membrane, twice daily for 2 days, FIG. 3
[10] = 0.5 mmol/L 60 μl topically, 10 times
[11] = lung, 0.5 mmol/L 60 μl topically, 10 times, after 8 weeks

Row | Molecule | effect on chick chorioallantoic membrane blood vessels [1, 9] | inhibition to the proliferation of umbilical cord vein-derived endothelial cells [2] | binding to Flt-1 (in words) [4] | ELISA (OD492 nm), SFlt-1 [4] | binding of 125I-VEGF to coated sFlt-1 [5] | reaction with KDR (in words) [6] | ELISA (OD492 nm), SKDR [6] | growth of human gastric carcinoma MGC803 cells in Balb/c nude mice [7] | binding to endothelial cells (in words) [8] | ELISA (OD492 nm), EC [8] | other results
1 | H2N-Trp-His-Asp-Pro-Thr-Pro-Trp-Trp-Ser-Trp-Glu-Ile-COOH (H-WHDPTPWWSWEI-OH) [Peptide F90] | derangeable in distribution and atrophic | no significant inhibition | – | – | – | – | – | – | – | – | –
2 | H2N-Trp-His-Ser-Asp-Met-Glu-Trp-Trp-Tyr-Leu-Leu-Gly-COOH (H-WHSDMEWWYLLG-OH) [Peptide F56] | rupture of blood vessels and bleeding in addition to blood vessel atrophy; also recorded: derangeable in distribution and atrophic | no significant inhibition | – | – | – | – | – | – | – | – | cancer metastasis to lung (in words) [3, 10]: significantly inhibit cancer metastasis to lung; tumor growth on the injection sites (in words) [3, 10]: inhibition of tumor growth on the injection sites; Number of metastatic foci in each mouse, mouse 1 [3, 11]: 0; Number of metastatic foci in each mouse, mouse 2 [3, 11]: 0; Number of metastatic foci in each mouse, mouse 3 [3, 11]: 1; Number of metastatic foci in each mouse, mouse 4 [3, 11]: 2; Number of metastatic foci in each mouse, mouse 5 [3, 11]: 2; Mean number of metastatic foci ([3]; lung, 5 mice, after 8 weeks): 1.0; Total number of metastatic foci ([3]; lung, 5 mice, after 8 weeks): 5; Metastasis inhibition (%) ([3]; lung, versus solvent, after 8 weeks): 70.5%
3 | VEGF [reference compound] | – | – | – | – | – | – | – | – | – | – | effect on chick chorioallantoic membrane blood vessels ([1]; in vivo): can promote the proliferation; also recorded: stimulated the blood vessels to proliferate significantly
4 | DHFR-F56: fusion protein composed of peptide F56 and dihydrofolate reductase, expressed in E. coli M15 (protein) MVRPLNCIVAVSQNMGIGKNGDLPWPPLRNEFKYFQRMTTTSSVEGKQNLVIMGRKTWFSIPEKNRPLKDRINIVLSRELKEPPRGAHFLAKSLDDALRLIEQPELASKVDMVWIVGGSSVYQEAMNQPGHLRLFVTRIMQEFESDTFFPEIDLGKYKLLPEYPGVLSEVQEEKGIKYKFEVYEKKWHSDMEWWYLLG | – | – | can bind | 0.529 | decreases along with the increase of the concentration of DHFR-F56 | no notable reaction | 0.081 | can inhibit the growth | can bind | 0.477 | necrosis of tumor ([7]; FIG. 4): result in necrosis of tumor
5 | DHFR-F90: fusion protein composed of peptide F90 and dihydrofolate reductase, expressed in E. coli M15 (protein) MVRPLNCIVAVSQNMGIGKNGDLPWPPLRNEFKYFQRMTTTSSVEGKQNLVIMGRKTWFSIPEKNRPLKDRINIVLSRELKEPPRGAHFLAKSLDDALRLIEQPELASKVDMVWIVGGSSVYQEAMNQPGHLRLFVTRIMQEFESDTFFPEIDLGKYKLLPEYPGVLSEVQEEKGIKYKFEVYEKKWHDPTPWWSWEI | – | – | can bind | 0.415 | – | no notable reaction | 0.074 | can inhibit the growth | can bind | 0.384 | –
6 | dihydrofolate reductase (protein, dihydrofolate reductase, negative control protein) MVRPLNCIVAVSQNMGIGKNGDLPWPPLRNEFKYFQRMTTTSSVEGKQNLVIMGRKTWFSIPEKNRPLKDRINIVLSRELKEPPRGAHFLAKSLDDALRLIEQPELASKVDMVWIVGGSSVYQEAMNQPGHLRLFVTRIMQEFESDTFFPEIDLGKYKLLPEYPGVLSEVQEEKGIKYKFEVYEKK | no notable effect | – | no reaction | 0.088 | no notable effect | no reaction | 0.074 | – | no reaction | 0.080 | –
